From patent US20180162928A1 (Janssen / Centocor, published 2018)
Like-named read-outs stand apart in the source and are kept apart here.

B1: ISOP121BR5P1G2 (designed binder, not shown: small tags and cut ends)
chain: LPAPKNLVVSRVTEDSARLSWADELHHANHFDSFLIQYQESEKVGEAIVLTVPGSERSYDLTGLKPGTEYTVSIYGVYDRHYEIHFYSNPLSAIFTT
notes: FN3 domain; E. coli lysate in the ELISA
B2: ISOP121AR5P1F3 (designed binder, not shown: small tags and cut ends)
chain: LPAPKNLVVSRVTEDSARLSWPFNNYSEHFDSFLIQYQESEKVGEAIVLTVPGSERSYDLTGLKPGTEYTVSIYGVYERKTAFYSNPLSAIFTT
notes: as for B1
B3: ISOP121BR5P1D3 (designed binder, not shown: small tags and cut ends)
chain: LPAPKNLVVSRVTEDSARLSWYEDNTERFDSFLIQYQESEKVGEAIVLTVPGSERSYDLTGLKPGTEYTVSIYGVYIRVQVLWFSNPLSAIFTT
notes: as for B1
B4: ISOP194BR9P1D10 (designed binder, not shown: small tags and cut ends)
chain: LPAPKNLVVSRVTEDSARLSWYEDNTERFDSFLIQYQESEKVVEAIVLTVPGSERSYDLTGLKPGTEYTVSIYGVYIRVQVLWFSNPLSAIFTT
notes: as for B1
B5: ISOP121GR5P1G11 (designed binder, not shown: small tags and cut ends)
chain: LPAPKNLVVSRVTEDSARLSWTAPDAAFDSFQINYHEYGQNGEAIQLIVPGSERSYDLTGLKPGTEYGVWIWGVKGGIRSKPLWAFFTT
notes: as for B1
B6: ISOP194GR9P1F9 (designed binder, not shown: small tags and cut ends)
chain: LPAPKNLVVSRVTEDSARLSWTAPDAAFDSFWIFYNERWQNGEAIRLIVPGSERSYDLTGLKPGTEYSVIIPGVKGGRNSFPLWAWFTT
notes: as for B1
B7: ISOP121GR5P1A2 (designed binder, not shown: small tags and cut ends)
chain: LPAPKNLVVSRVTEDSARLSWTAPDAAFDSFKIQYIERYIPGEAIQLNVPGSERSYDLTGLKPGTEYSVIIPGVKGGRNSFPLWAWFTT
notes: as for B1
B8: ISOP121FR5P1G11 (designed binder, not shown: small tags and cut ends)
chain: LPAPKNLVVSRVTEDSARLSWTAPDAAFDSFSIWYLEIVAHGEAIVLTVPGSERSYDLTGLKPGTEYEVIIHGVKGCGPSGPLSAIFTT
notes: as for B1
B9: ISOP121BR5P1E2 (designed binder, not shown: small tags and cut ends)
chain: LPAPKNLVVSRVTEDSARLSWWFPLEWFDSFLIQYQESEKVGEAIVLTVPGSERSYDLTGLKPGTEYTVSIYGVYTREHKSVWASNPLSAIFTT
notes: as for B1
B10: ISOP121AR5P1F9 (designed binder, not shown: small tags and cut ends)
chain: LPAPKNLVVSRVTEDSARLSWGWSELIATHFDSFLIQYQESEKVGEAIVLTVPGSERSYDLTGLKPGTEYTVSIYGVYNRKVNFYSNPLSAIFTT
notes: as for B1
B11: ISOP121AR5P1F2 (designed binder, not shown: small tags and cut ends)
chain: LPAPKNLVISRVTEDSARLSWGWSELIATHFDSFLIQYQESEKVGEAIVLTVPGSERSYDLTGLKPGTEYTVSIYGVYNRKVNFYSNPLSAIFTT
notes: as for B1
B12: ISOP194AR9P1H1 (designed binder, not shown: small tags and cut ends)
chain: LPAPKNLVVSRVTEDSARLSWWRVLGHSHFFDSFLIQYQESEKVGEAIVLTVPGSERSYDLTGLKPGTEYTVSIYGVYNRKVNFYSNPLSAIFTT
notes: as for B1
B13: ISOP121BR5P1C3 (designed binder, not shown: small tags and cut ends)
chain: LPAPKNLVVSRVTEDSARLSWASARDYFDSFLIQYQESEKVGEAIVLTVPGSERSYDLTGLKPGTEYTVSIYGVLAIAQITHWFSNPLSAIFTT
notes: as for B1
B14: ISOP121GR5P1F6 (designed binder, not shown: small tags and cut ends)
chain: LPAPKNLVVSRVTEDSARLSWTAPDAAFDSFDIRYHEYTWPGEAIVLLVPGSERSYDLTGLKPGTEYGVYINGVKGGFRSKPLFAWFTTGG
notes: as for B1
B15: ISOP121BR5P1E9 (designed binder, not shown: small tags and cut ends)
chain: LPAPKNLVVSRVTEDSARLSWDSYRDYFDSFLIQYQESEKVGEAIVLTVPGSERSYDLTGLKPGTEYTVSIYGVYSRKHVVFVQSNPLSAIFTT
notes: as for B1
B16: ISOP121HR5P1H2 (designed binder, not shown: small tags and cut ends)
chain: LPAPKNLVVSRVTEDSARLSWTAPDAAFDSFDIYYLEYDYSGEAIVLTVPGSERSYDLTGLKPGTEYDVLIIGVKGGSLSTPLSAIFTT
notes: as for B1
B17: ISOP121AR5P1H5 (designed binder, not shown: small tags and cut ends)
chain: LPAPKNLVVSRVTEDSARLSWEDAVKHIWFDSFLIQYQESEKVGEAIVLTVPGSERSYDLTGLKPGTEYTVSIYGVWIASVWRSNPLSAIFTT
notes: as for B1
B18: ISOP121BR5P1F7 (designed binder, not shown: small tags and cut ends)
chain: LPAPKNLVVSRVTEDSARLSWHDATWQYFDSFLIQYQESEKVGEAIVLTVPGSERSYDLTGLKPGTEYTVSIYGVFHRKHIDFVSNPLSAIFTT
notes: as for B1
B19: ISOP121AR5P1F7 (designed binder, not shown: small tags and cut ends)
chain: LPAPKNLVVSRVTEDSARLSWQEHWDTSSNFDSFLIQYQESEKVGEAIVLTVPGSERSYDLTGLKPGTEYTISIYGVYNRKVLFYSNPLSAIFTT
notes: as for B1
B20: ISOP194AR9P1D11 (designed binder, not shown: small tags and cut ends)
chain: LPAPKNLVVSRVTEDSGRLSWQHHISFFDSFLIQYQESEKVGEAIVLTVPGSERSYDLTGLKPGTEYTVSIYGVYNRKVNFYSNPLSAIFTT
notes: as for B1
B21: ISOP121AR5P1E7 (designed binder, not shown: small tags and cut ends)
chain: LPAPKNLVVSRVTEDSARLSWHVYHEIDYFDSFLIQYQESEKVGEAIVLTVPGSERSYDLTGLKPGTEYTVSIYGVYQRKVEFYSNPLSAIFTT
notes: as for B1
B22: ISOP121BR5P1C9 (designed binder, not shown: small tags and cut ends)
chain: LPAPKNLVVSRVTEDSARLSWIWPDKHEFFDSFLIQYQESEKVGEAIVLTVPGSERSYDLTGLKPGTEYTVSIYGVYDRKYANWSSNPLSAIFTT
notes: as for B1
B23: ISOP121FR5P1G1 (designed binder, not shown: small tags and cut ends)
chain: LPAPKNLVVSRVTEDSARLSWTAPDAAFDSFWIHYTEAPVHGEAIVLTVPGSERSYDLTGLKPGTEYTVVIWGVKGGTWSSPLSAIFTT
notes: as for B1
B24: ISOP121AR5P1G10 (designed binder, not shown: small tags and cut ends)
chain: LPAPKNLVVSRVTEDSARLSWEWLEHFDSFLIQYQESEKVGEAIVLTVPGSERSYDLTGLKPGTEYTVSIYGVYQRKVEFHSNPLSAIFTTT
notes: as for B1
B25: ISOP121BR5P1A6 (designed binder, not shown: small tags and cut ends)
chain: LPAPKNLVVSRVTEDSARLSWASWLVAFFDSFLIQYQESEKVGEAIVLTVPGSERSYDLTGLKPGTEYTVSIYGVYQRHASAFVSNPLSAIFTT
notes: as for B1
B26: ISOP121BR5P1D1 (designed binder, not shown: small tags and cut ends)
chain: LPAPKNLVVSRVTEDSARLSWKWGGEFFDSFLIQYQESEKVGEAIVLTVPGSERSYDLTGLKPGTEYTVSIYGVYQRNWHHWYSNPLSAIFTT
notes: as for B1
B27: ISOP121ER5P1E7 (designed binder, not shown: small tags and cut ends)
chain: LPAPKNLVVSRVTEDSARLSWTAPDAAFDSFTIGYTETPPRGEAIVLTVPGSERSYDLTGLKPGTKYYVSILGVKGGLGSWPLSAIFTT
notes: as for B1
B28: ISOP194ER9P1E6 (designed binder, not shown: small tags and cut ends)
chain: LPAPKNLVVSRVTEDSARLSWTAPDAAFDSFWIKYYEKRNPGEAIVLTVPGSERSYDLTGLKPGTEYLVIISGVKGGSRSVPLSAIFTT
notes: as for B1
B29: ISOP194BR9P1A9 (designed binder, not shown: small tags and cut ends)
chain: LPAPKNLVVSRVTEDSARLSWFNADEEYFDSFLIQYQESEKVGEAIVLTVPGSERSYDLTGLKPGTEYTVSIYGVYDRKVKFVQSNPLSAIFTT
notes: as for B1
B30: ISOP121BR5P1H6 (designed binder, not shown: small tags and cut ends)
chain: LPAPKNLVVSRVTEDSARLSWGYIDVSYFDSFLIQYQESEKVGEAIVLTVPGSERSYDLTGLKPGTEYTVSIYGVYSRPKAEFTSNPLSAIFTT
notes: as for B1

Columns and labels:
Assay in all cases: ELISA, lysate on plate-bound antigen
[1] = target: unrelated Fc-fused recombinant protein
[2] = target: human serum albumin (human) (UniProt P02768)
[3] = target: T1, recombinant biotinylated PD-L1 (rhPD-L1/Fc Chimera, R&D Systems 156-B7) (human, UniProt Q9NZQ7 19-238, biotinylated (sites not given))
T1 construct: Bought Fc chimera; also called human PD-L1
Procedure: Streptavidin-coated Maxisorp plates (Nunc catalog 436110) were blocked for 1 h in Starting Block T20 (Pierce) and then coated with biotinylated PD-L1 (using same antigen as in panning) or negative controls (an unrelated Fc-fused recombinant protein and human serum albumin) for 1 h. Plates were rinsed with TBST and diluted lysate was applied to plates for 1 h. Following additional rinses, wells were treated with HRP-conjugated anti-FN3 domain antibody (PAB25) for 1 h and then assayed with POD (Roche catalog 11582950001).

[4] = target: unrelated Fc-fused recombinant protein; remark: listed apart in the source

Sequence of human serum albumin (human) (P02768 25-609 limits assumed): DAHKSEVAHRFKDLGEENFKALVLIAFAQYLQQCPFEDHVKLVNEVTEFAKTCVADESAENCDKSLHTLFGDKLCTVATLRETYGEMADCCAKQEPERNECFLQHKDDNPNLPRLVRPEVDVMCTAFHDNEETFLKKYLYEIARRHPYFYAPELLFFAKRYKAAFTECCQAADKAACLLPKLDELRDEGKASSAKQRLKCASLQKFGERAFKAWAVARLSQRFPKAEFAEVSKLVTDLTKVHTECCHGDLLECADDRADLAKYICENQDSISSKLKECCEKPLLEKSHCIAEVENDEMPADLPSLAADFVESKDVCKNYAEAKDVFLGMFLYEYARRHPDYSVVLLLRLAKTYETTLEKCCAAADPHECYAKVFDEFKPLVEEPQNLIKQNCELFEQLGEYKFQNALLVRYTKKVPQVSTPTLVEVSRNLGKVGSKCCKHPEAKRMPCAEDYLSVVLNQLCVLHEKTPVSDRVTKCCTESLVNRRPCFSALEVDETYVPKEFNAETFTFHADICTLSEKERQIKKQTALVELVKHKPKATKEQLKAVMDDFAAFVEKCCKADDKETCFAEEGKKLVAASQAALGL
T1 sequence (Q9NZQ7 19-238, change not shown): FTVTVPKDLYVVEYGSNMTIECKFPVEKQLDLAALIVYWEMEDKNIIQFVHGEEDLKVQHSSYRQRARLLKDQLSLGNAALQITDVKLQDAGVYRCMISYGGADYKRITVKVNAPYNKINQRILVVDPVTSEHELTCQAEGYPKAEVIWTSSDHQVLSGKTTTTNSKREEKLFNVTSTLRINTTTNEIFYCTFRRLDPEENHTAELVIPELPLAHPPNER

Binder	ELISA Fc Control (RSU) [1] [RSU]	ELISA HSA (RSU) [2] [RSU]	ELISA PD-L1 Fc (RSU) [3] [RSU]	ELISA Fc Control (RSU) [4] [RSU]
B1	800	560	16700	
B2	800	960	180000	
B3	800	800	75800	
B4	720	1120	1.67e+06	
B5	960	1040	240000	
B6	320	800	105000	
B7	720	720	61700	
B8	880	480	18600	
B9	800	720	137000	
B10	1120	1040	136000	
B11	880	960	51000	
B12	15700	6800	2.14e+07	
B13	640	480	177000	
B14	640	640	32100	
B15	960	800	42000	
B16	720	560	21000	
B17	960	1120	171000	
B18	720	880	12900	
B19	720	1040	64000	
B20	28200	12700	1.04e+06	
B21	4240	6560	327000	
B22	1120	1040	226000	
B23	640	400	10000	
B24	1360	1280	232000	
B25	720	720	11000	
B26	1040	960	186000	
B27	480	560	251000	
B28	240	720	8.98e+06	
B29			1.9e+07	2320
B30	1440	1040	74600	
